The data set deals with Escherichia coli TOP10. In words: shrunken log2 fold change of peptide-encoding DNA abundance (4.5 h post-induction vs induction); higher = less antimicrobial activity (less host growth inhibition). To be noted: time post-induction: 4.5 h; library: site-saturation at positions 5, 18, 19, 20.
For the sequence RRIRGRPPRLPRPRPRPVVMPRP, the “shrunken log2 fold change” value is 0.237.
For RRIRPRPPRLPRPRPRPMPWPRP, the “shrunken log2 fold change” value came out at 0.215.
As for RRIRFRPPRLPRPRPRPQMSPRP, the “shrunken log2 fold change” value was -0.204.
As for RRIRYRPPRLPRPRPRPVDFPRP, the figure is -0.226; as for RRIRNRPPRLPRPRPRPFLEPRP, 0.0329; as for RRIRIRPPRLPRPRPRPKFAPRP, -0.0494.
The same measure for RRIRVRPPRLPRPRPRPHLIPRP: -0.352.
The same measure for RRIRFRPPRLPRPRPRPCSAPRP: -0.103.
Regarding RRIRMRPPRLPRPRPRPRLIPRP, the “shrunken log2 fold change” value turned out to be 0.0709.
On to RRIRGRPPRLPRPRPRPPSRPRP, for which the “shrunken log2 fold change” value turned out to be 1.11.
The same measure for RRIRTRPPRLPRPRPRPRPEPRP: 0.238; for RRIRWRPPRLPRPRPRPITVPRP: -0.0559; for RRIRDRPPRLPRPRPRPKPHPRP: 0.305.
RRIRQRPPRLPRPRPRPQAEPRP: the “shrunken log2 fold change” value came out at 4.1.
For RRIRKRPPRLPRPRPRPYWTPRP, the “shrunken log2 fold change” value is -0.26.
Regarding RRIRQRPPRLPRPRPRPDFNPRP, the “shrunken log2 fold change” value is -0.164.
The same measure for RRIRFRPPRLPRPRPRPCFAPRP: 0.153; for RRIRTRPPRLPRPRPRPVCPPRP: 0.186.
As for RRIRVRPPRLPRPRPRPPETPRP, the figure is -0.0362; as for RRIRCRPPRLPRPRPRPGDSPRP, -0.0113.
Regarding RRIRQRPPRLPRPRPRPSEKPRP, the “shrunken log2 fold change” value was -0.018.
The same measure for RRIRQRPPRLPRPRPRPRPSPRP: 0.112.
On to RRIRARPPRLPRPRPRPRVPPRP, for which the “shrunken log2 fold change” value amounted to 0.428.
As for RRIRSRPPRLPRPRPRPFWHPRP, the figure is -0.0146; as for RRIRSRPPRLPRPRPRPAMFPRP, -0.0843; as for RRIRCRPPRLPRPRPRPNWIPRP, -0.419.
In the case of RRIRFRPPRLPRPRPRPWYMPRP, the “shrunken log2 fold change” value is -0.991.
On to RRIRSRPPRLPRPRPRPLYPPRP, for which the “shrunken log2 fold change” value is -0.813.
For RRIRFRPPRLPRPRPRPNIVPRP, the “shrunken log2 fold change” value is -0.199.
The same measure for RRIRRRPPRLPRPRPRPVSRPRP: -0.0137; for RRIRNRPPRLPRPRPRPSNHPRP: -0.603.
As for RRIRWRPPRLPRPRPRPWFFPRP, the figure is -0.0638; as for RRIRARPPRLPRPRPRPELVPRP, 1.3.
Take RRIRTRPPRLPRPRPRPNAWPRP: the “shrunken log2 fold change” value was 0.0447.
Take RRIRTRPPRLPRPRPRPIVRPRP: the “shrunken log2 fold change” value is -0.00141.
In the case of RRIRRRPPRLPRPRPRPHNCPRP, the “shrunken log2 fold change” value stood at 0.163.
Regarding RRIRDRPPRLPRPRPRPDGEPRP, the “shrunken log2 fold change” value is -0.0121.
The same measure for RRIRTRPPRLPRPRPRPPAWPRP: 0.663; for RRIRHRPPRLPRPRPRPMYLPRP: -0.412.
As to RRIRCRPPRLPRPRPRPEVCPRP, the “shrunken log2 fold change” value stood at 0.0143.
As for RRIRRRPPRLPRPRPRPVREPRP, the figure is 0.0195; as for RRIRQRPPRLPRPRPRPWREPRP, -0.0373; as for RRIRGRPPRLPRPRPRPYPTPRP, 0.0422.
On to RRIRLRPPRLPRPRPRPFVRPRP, for which the “shrunken log2 fold change” value is 0.00108.
The same measure for RRIRPRPPRLPRPRPRPPSGPRP: 0.527; for RRIRWRPPRLPRPRPRPWRFPRP: 0.0309.
As for RRIRGRPPRLPRPRPRPSCIPRP, the figure is 0.423; as for RRIRMRPPRLPRPRPRPSPMPRP, 0.369.
In the case of RRIRYRPPRLPRPRPRPVMYPRP, the “shrunken log2 fold change” value is -0.134.
The same measure for RRIRGRPPRLPRPRPRPFMDPRP: -0.000933; for RRIRCRPPRLPRPRPRPPIEPRP: -0.0198; for RRIRLRPPRLPRPRPRPLQEPRP: -0.101.
As to RRIRKRPPRLPRPRPRPDRHPRP, the “shrunken log2 fold change” value was -0.091.
RRIRQRPPRLPRPRPRPVQLPRP: the “shrunken log2 fold change” value stood at 0.163.
For RRIRGRPPRLPRPRPRPYNGPRP, the “shrunken log2 fold change” value was -0.0131.
On to RRIRHRPPRLPRPRPRPKVHPRP, for which the “shrunken log2 fold change” value was -0.0663.
As for RRIRHRPPRLPRPRPRPYGYPRP, the “shrunken log2 fold change” value is -0.22.
As for RRIRGRPPRLPRPRPRPLRDPRP, the figure is 1.3; as for RRIRARPPRLPRPRPRPPCFPRP, 0.482; as for RRIRVRPPRLPRPRPRPEDTPRP, 0.106.
For the sequence RRIRIRPPRLPRPRPRPLVVPRP, the “shrunken log2 fold change” value was -0.25.
The same measure for RRIRMRPPRLPRPRPRPTSGPRP: 1.06; for RRIRQRPPRLPRPRPRPTHTPRP: 0.258.
The same measure for RRIRHRPPRLPRPRPRPWVYPRP: -0.125.
RRIRNRPPRLPRPRPRPYVKPRP: the “shrunken log2 fold change” value was -0.626.
With RRIRERPPRLPRPRPRPMSCPRP, the “shrunken log2 fold change” value was -0.206.
Take RRIRTRPPRLPRPRPRPNRCPRP: the “shrunken log2 fold change” value is -0.189.
For the sequence RRIRQRPPRLPRPRPRPAEMPRP, the “shrunken log2 fold change” value is -0.0227.
On to RRIRHRPPRLPRPRPRPRLRPRP, for which the “shrunken log2 fold change” value was determined as 0.207.
Consider RRIRPRPPRLPRPRPRPMRWPRP, for which the “shrunken log2 fold change” value came out at 0.707.
The same measure for RRIRFRPPRLPRPRPRPACLPRP: -0.105; for RRIRVRPPRLPRPRPRPIGKPRP: -0.129.
As for RRIRLRPPRLPRPRPRPCGAPRP, the figure is 0.356; as for RRIRLRPPRLPRPRPRPEPGPRP, 0.35.
As for RRIRYRPPRLPRPRPRPQCLPRP, the figure is 0.0613; as for RRIRFRPPRLPRPRPRPFIPPRP, -0.823.
Consider RRIRKRPPRLPRPRPRPNSTPRP, for which the “shrunken log2 fold change” value is -0.0291.
As for RRIRLRPPRLPRPRPRPSSYPRP, the figure is -0.542; as for RRIRWRPPRLPRPRPRPKFDPRP, -0.0572.
As for RRIRPRPPRLPRPRPRPDMFPRP, the figure is 2.58; as for RRIRHRPPRLPRPRPRPTCMPRP, -0.184.
As for RRIRLRPPRLPRPRPRPDPEPRP, the figure is 0.0928; as for RRIRERPPRLPRPRPRPNPMPRP, -0.211; as for RRIRPRPPRLPRPRPRPLYKPRP, -0.247.
For the sequence RRIRVRPPRLPRPRPRPYTKPRP, the “shrunken log2 fold change” value is -0.868.
As for RRIRTRPPRLPRPRPRPHYWPRP, the figure is -0.25; as for RRIRCRPPRLPRPRPRPFPKPRP, 0.131; as for RRIRHRPPRLPRPRPRPFKAPRP, -0.0378.
Regarding RRIRHRPPRLPRPRPRPFHPPRP, the “shrunken log2 fold change” value was -0.274.
As for RRIRKRPPRLPRPRPRPGHHPRP, the figure is 0.228.
As for RRIRLRPPRLPRPRPRPKENPRP, the figure is 0.00493.
The same measure for RRIRTRPPRLPRPRPRPFILPRP: -0.276; for RRIRVRPPRLPRPRPRPQQGPRP: 0.403.
For RRIRFRPPRLPRPRPRPWDFPRP, the “shrunken log2 fold change” value was -0.0975.
As for RRIRDRPPRLPRPRPRPWFMPRP, the figure is 0.0254; as for RRIRKRPPRLPRPRPRPGMIPRP, -0.0362.
For RRIRARPPRLPRPRPRPCSCPRP, the “shrunken log2 fold change” value is 0.0516.
Take RRIRCRPPRLPRPRPRPGASPRP: the “shrunken log2 fold change” value was found to be 0.519.
The same measure for RRIRHRPPRLPRPRPRPIQTPRP: -0.338; for RRIRHRPPRLPRPRPRPTEAPRP: -0.00626.
For the sequence RRIRPRPPRLPRPRPRPFLWPRP, the “shrunken log2 fold change” value came to 0.0275.
The same measure for RRIRWRPPRLPRPRPRPSMKPRP: -0.199; for RRIRRRPPRLPRPRPRPSDAPRP: -0.0697.
Consider RRIRGRPPRLPRPRPRPILLPRP, for which the “shrunken log2 fold change” value was -0.0679.
As for RRIRFRPPRLPRPRPRPTLKPRP, the figure is -0.0426.
The same measure for RRIRARPPRLPRPRPRPWHRPRP: 0.00868; for RRIRCRPPRLPRPRPRPAMHPRP: 0.354.
As for RRIRERPPRLPRPRPRPGHPPRP, the “shrunken log2 fold change” value is 0.143.
Consider RRIRPRPPRLPRPRPRPQAGPRP, for which the “shrunken log2 fold change” value was 0.00187.
For RRIRFRPPRLPRPRPRPNYHPRP, the “shrunken log2 fold change” value is -0.758.
As for RRIRERPPRLPRPRPRPEGSPRP, the figure is 0.0172.
With RRIRTRPPRLPRPRPRPKNGPRP, the “shrunken log2 fold change” value was 0.0173.
The same measure for RRIRCRPPRLPRPRPRPSKWPRP: -0.0391; for RRIRIRPPRLPRPRPRPMCFPRP: -0.343.
Take RRIRARPPRLPRPRPRPIIMPRP: the “shrunken log2 fold change” value is -0.258.
The same measure for RRIRDRPPRLPRPRPRPMMLPRP: -0.0234.
Take RRIRARPPRLPRPRPRPMPRPRP: the “shrunken log2 fold change” value came out at 0.827.
As for RRIRCRPPRLPRPRPRPRSGPRP, the figure is 0.694.
RRIRNRPPRLPRPRPRPESAPRP: the “shrunken log2 fold change” value is -0.0184.
As for RRIRQRPPRLPRPRPRPSCYPRP, the figure is -0.396; as for RRIRIRPPRLPRPRPRPYQMPRP, -0.35.
The same measure for RRIRWRPPRLPRPRPRPWWNPRP: -0.0562.
RRIRHRPPRLPRPRPRPGTCPRP: the “shrunken log2 fold change” value is -0.318.
Regarding RRIRDRPPRLPRPRPRPRKFPRP, the “shrunken log2 fold change” value is -0.0848.
The same measure for RRIRDRPPRLPRPRPRPGKSPRP: 0.0637.

Source of the values: the supplement of paper PMC9112550, “Optimization of the antimicrobial peptide Bac7 by deep mutational scanning” (BMC Biology, 2022).
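Further: peptides expressed intracellularly from a pBAD plasmid library in pooled LB shake-flask culture, induced with 0.3% L-arabinose, DNA abundance read by NGS, three biological replicates, DESeq2 with apeglm shrinkage.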
